Laboratory results taken from patent US20060246046A1 (published 2006).

Key:
[1] = biological target: T1, factor XIIIa (human, UniProt P00488 39-732); assay: cell-based or functional assay
T1 sequence (looked up): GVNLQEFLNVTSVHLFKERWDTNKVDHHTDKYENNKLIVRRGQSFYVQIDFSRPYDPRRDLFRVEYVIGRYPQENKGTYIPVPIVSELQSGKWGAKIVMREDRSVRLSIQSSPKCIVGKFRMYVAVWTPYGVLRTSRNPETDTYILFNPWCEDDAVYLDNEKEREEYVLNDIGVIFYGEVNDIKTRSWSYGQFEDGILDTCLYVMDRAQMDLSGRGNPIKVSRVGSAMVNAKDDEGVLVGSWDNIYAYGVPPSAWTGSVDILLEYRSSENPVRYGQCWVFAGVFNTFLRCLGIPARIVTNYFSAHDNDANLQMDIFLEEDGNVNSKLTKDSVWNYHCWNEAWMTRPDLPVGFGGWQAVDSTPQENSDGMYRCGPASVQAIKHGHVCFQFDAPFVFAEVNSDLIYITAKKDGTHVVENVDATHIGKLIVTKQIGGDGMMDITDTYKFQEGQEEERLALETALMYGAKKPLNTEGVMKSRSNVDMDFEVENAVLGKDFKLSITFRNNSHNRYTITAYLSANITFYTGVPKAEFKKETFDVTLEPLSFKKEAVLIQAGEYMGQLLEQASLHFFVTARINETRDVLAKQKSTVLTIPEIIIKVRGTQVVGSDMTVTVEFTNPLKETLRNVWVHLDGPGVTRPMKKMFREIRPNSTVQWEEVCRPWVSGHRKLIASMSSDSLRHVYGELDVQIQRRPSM

[2] = biological target: T1, factor XIIIa; assay: cell-based or functional assay; remark: listed apart in the source

Row | Binder | Relative inhibitory effect (%) at 7.27 µM, recombinant tridegin = 100% [1] [%] | Relative inhibitory effect (%) at 5.45 µM, wild type = 100% [2] [%] | further results
1 | Ac-YCAFEPQCRPRSELIKPMDD-NH2 (cysteine pairing not given here) [20 amino acid-long tridegin peptide SEQ ID NO.17] | 12.3 |  | 
2 | Ac-PCKEWHQGIPNPRCWCGADL-NH2 (cysteine pairing not given here) [20 amino acid-long tridegin peptide SEQ ID NO.4] | 9.8 |  | 
3 | Ac-DQYCAFIPQCRPRSELIKPM-NH2 (cysteine pairing not given here) [20 amino acid-long tridegin peptide SEQ ID NO.16] | 14.8 |  | 
4 | Ac-IPNPRCWCGADLECAQDQYC-NH2 (cysteine pairing not given here) [20 amino acid-long tridegin peptide SEQ ID NO.8] | 13.7 |  | 
5 | Ac-AFIPQCRPRSELIKPMDDIY-NH2 [20 amino acid-long tridegin peptide SEQ ID NO.18] | 13.3 |  | 
6 | Ac-WHQGIPNPRCWCGADLECAQ-NH2 (cysteine pairing not given here) [20 amino acid-long tridegin peptide SEQ ID NO.6] | 9.8 |  | 
7 | Ac-RCWCGADLECAQDQYCAFIP-NH2 (cysteine pairing not given here) [20 amino acid-long tridegin peptide SEQ ID NO.10] | 5.88 |  | 
8 | Ac-MKLLPCKEWHQGIPNPRCWC-NH2 (cysteine pairing not given here) [20 amino acid-long tridegin peptide SEQ ID NO.2] | 0 |  | 
9 | Ac-QCRPRSELIKPMDDIYQRPV-NH2 [20 amino acid-long tridegin peptide SEQ ID NO.20] | 11.1 |  | 
10 | Ac-ELIKPMDDIYQRPVEFPNLP-NH2 [20 amino acid-long tridegin peptide SEQ ID NO.23] | 24 |  | 
11 | Ac-WCGADLECAQDQYCAFEPQC-NH2 (cysteine pairing not given here) [20 amino acid-long tridegin peptide SEQ ID NO.11] | 0.36 |  | 
12 | recombinant wild-type tridegin polypeptide (SEQ ID No. 1) from Escherichia coli (protein, not shown: small tags and cut ends) MKLLPCKEWHQGIPNPRCWCGADLECAQDQYCAFIPQCRPRSELIKPMDDIYQRPVEFPNLPLKPREE |  | 100 | IC50, Berichrom assay (factor XIIIa activity) [2]: 2000 to 4000 nM; Relative inhibitory effect (%) at 7.27 µM (reference) [2]: 100%
13 | modified tridegin F58A (protein, not shown: small tags and cut ends) MKLLPCKEWHQGIPNPRCWCGADLECAQDQYCAFIPQCRPRSELIKPMDDIYQRPVEAPNLPLKPREE |  | 60 | 
14 | modified tridegin P65A (protein, not shown: small tags and cut ends) MKLLPCKEWHQGIPNPRCWCGADLECAQDQYCAFIPQCRPRSELIKPMDDIYQRPVEFPNLPLKAREE |  | 51 | 
15 | modified tridegin Cys variant C26A (protein, not shown: small tags and cut ends) MKLLPCKEWHQGIPNPRCWCGADLEAAQDQYCAFIPQCRPRSELIKPMDDIYQRPVEFPNLPLKPREE |  | 82 | 
16 | modified tridegin H10A (protein, not shown: small tags and cut ends) MKLLPCKEWAQGIPNPRCWCGADLECAQDQYCAFIPQCRPRSELIKPMDDIYQRPVEFPNLPLKPREE |  | 87 | 
17 | modified tridegin Cys variant C06A (protein, not shown: small tags and cut ends) MKLLPAKEWHQGIPNPRCWCGADLECAQDQYCAFIPQCRPRSELIKPMDDIYQRPVEFPNLPLKPREE |  | 72 | 
18 | modified tridegin M48A (protein, not shown: small tags and cut ends) MKLLPCKEWHQGIPNPRCWCGADLECAQDQYCAFIPQCRPRSELIKPADDIYQRPVEFPNLPLKPREE |  | 91 | 
19 | modified tridegin F34A (protein, not shown: small tags and cut ends) MKLLPCKEWHQGIPNPRCWCGADLECAQDQYCAAIPQCRPRSELIKPMDDIYQRPVEFPNLPLKPREE |  | 96 | 
20 | modified tridegin I45A (protein, not shown: small tags and cut ends) MKLLPCKEWHQGIPNPRCWCGADLECAQDQYCAFIPQCRPRSELAKPMDDIYQRPVEFPNLPLKPREE |  | 115 | 

Row | Binder | Relative inhibitory effect (%) at 7.27 µM, recombinant tridegin = 100% [1] [%] | Relative inhibitory effect (%) at 5.45 µM, wild type = 100% [2] [%] | further results
21 | modified tridegin K02A (protein, not shown: small tags and cut ends) MALLPCKEWHQGIPNPRCWCGADLECAQDQYCAFIPQCRPRSELIKPMDDIYQRPVEFPNLPLKPREE |  | 113 | 
22 | modified tridegin N60A (protein, not shown: small tags and cut ends) MKLLPCKEWHQGIPNPRCWCGADLECAQDQYCAFIPQCRPRSELIKPMDDIYQRPVEFPALPLKPREE |  | 68 | 
23 | modified tridegin R39A (protein, not shown: small tags and cut ends) MKLLPCKEWHQGIPNPRCWCGADLECAQDQYCAFIPQCAPRSELIKPMDDIYQRPVEFPNLPLKPREE |  | 49 | 
24 | modified tridegin Cys variant C18A (protein, not shown: small tags and cut ends) MKLLPCKEWHQGIPNPRAWCGADLECAQDQYCAFIPQCRPRSELIKPMDDIYQRPVEFPNLPLKPREE |  | 93 | 
25 | modified tridegin D50A (protein, not shown: small tags and cut ends) MKLLPCKEWHQGIPNPRCWCGADLECAQDQYCAFIPQCRPRSELIKPMDAIYQRPVEFPNLPLKPREE |  | 53 | 
26 | modified tridegin Cys variant C20A (protein, not shown: small tags and cut ends) MKLLPCKEWHQGIPNPRCWAGADLECAQDQYCAFIPQCRPRSELIKPMDDIYQRPVEFPNLPLKPREE |  | 63 | 
27 | modified tridegin G12A (protein, not shown: small tags and cut ends) MKLLPCKEWHQAIPNPRCWCGADLECAQDQYCAFIPQCRPRSELIKPMDDIYQRPVEFPNLPLKPREE |  | 97 | 
28 | modified tridegin K07A (protein, not shown: small tags and cut ends) MKLLPCAEWHQGIPNPRCWCGADLECAQDQYCAFIPQCRPRSELIKPMDDIYQRPVEFPNLPLKPREE |  | 90 | 
29 | modified tridegin D50A, P55L (protein, not shown: small tags and cut ends) MKLLPCKEWHQGIPNPRCWCGADLECAQDQYCAFIPQCRPRSELIKPMDAIYQRLVEFPNLPLKPREE |  | 84 | 
30 | Ac-KEWHQGIPNPRCWCGADLEC-NH2 (cysteine pairing not given here) [20 amino acid-long tridegin peptide SEQ ID NO.5] | 1.96 |  | 
31 | Ac-NPRCWCGADLECAQDQYCAF-NH2 (cysteine pairing not given here) [20 amino acid-long tridegin peptide SEQ ID NO.9] | 0 |  | 
32 | Ac-LLPCKEWHQGIPNPRCWCGA-NH2 (cysteine pairing not given here) [20 amino acid-long tridegin peptide SEQ ID NO.3] | 5.88 |  | 
33 | Ac-AQDQYCAFIPQCRPRSELIK-NH2 (cysteine pairing not given here) [20 amino acid-long tridegin peptide SEQ ID NO.15] | 3.32 |  | 
34 | Ac-ECAQDQYCAFIPQCRPRSEL-NH2 (cysteine pairing not given here) [20 amino acid-long tridegin peptide SEQ ID NO.14] | 6.3 |  | 
35 | Ac-DLECAQDQYCAFIPQCRPRS-NH2 (cysteine pairing not given here) [20 amino acid-long tridegin peptide SEQ ID NO.13] | 7.96 |  | 
36 | Ac-IPQCRPRSELIKPMDDIYQR-NH2 [20 amino acid-long tridegin peptide SEQ ID NO.19] | 0 |  | 
37 | Ac-QGIPNPRCWCGADLECAQDQ-NH2 (cysteine pairing not given here) [20 amino acid-long tridegin peptide SEQ ID NO.7] | 13.7 |  | 
38 | Ac-RPRSELIKPMDDIYQRPVEF-NH2 [20 amino acid-long tridegin peptide SEQ ID NO.21] | 19.4 |  | 
39 | Ac-GADLECAQDQYCAFIPQCRP-NH2 (cysteine pairing not given here) [20 amino acid-long tridegin peptide SEQ ID NO.12] | 2.49 |  | 
40 | Ac-RSELIKPMDDIYQRPVEFPN-NH2 [20 amino acid-long tridegin peptide SEQ ID NO.22] | 8.64 |  | 
